Assay results published in patent US20160244499A1.

Target: C-terminally biotinylated γc ectodomain (human) (UniProt P31785)
Assay: site 2 affinity of free super-4 for γc; method not stated

B1: super-4 (IL-4 RGA), free, not bound to IL-4Rα (ligand)
chain: HKCDITLQEIIKTLNSLTEQKTLCTELTVTDIFAASKNTTEKETFCRAATVLRQFYSHHEKDTRCLGATAQQFHRHKQLIRFLKRLDRNLWGLAGLNSCPVKEANQSTLENFLERLRVIMQSKWFKCGAHHHHHH
In the case of B1, the Kd is reported as 300 nM.
